# Results taken from patent CN116751285A (UNIV HEBEI NORMAL, dated 2023).
# B1: VHH-A35R纳米抗体 (VHH)
# VHH: AVQLVESGGGLAQTGGSLRLSCAASGRAFRDYAMAWFRQAPGKEREFVAAVSKTGYAIRYEDSVKGRFTISRDNAKNTVSLQMASLKVEDTAVYYCAADRTHRLGYSLRVDPLGYDDWGQGTQVTVSS
# Molecular target: BSA (UniProt P02769 25-607)
# Experiment: indirect ELISA, protein coated, anti-6xHis detection, OD450
# BSA, sequence (P02769 25-607 limits assumed): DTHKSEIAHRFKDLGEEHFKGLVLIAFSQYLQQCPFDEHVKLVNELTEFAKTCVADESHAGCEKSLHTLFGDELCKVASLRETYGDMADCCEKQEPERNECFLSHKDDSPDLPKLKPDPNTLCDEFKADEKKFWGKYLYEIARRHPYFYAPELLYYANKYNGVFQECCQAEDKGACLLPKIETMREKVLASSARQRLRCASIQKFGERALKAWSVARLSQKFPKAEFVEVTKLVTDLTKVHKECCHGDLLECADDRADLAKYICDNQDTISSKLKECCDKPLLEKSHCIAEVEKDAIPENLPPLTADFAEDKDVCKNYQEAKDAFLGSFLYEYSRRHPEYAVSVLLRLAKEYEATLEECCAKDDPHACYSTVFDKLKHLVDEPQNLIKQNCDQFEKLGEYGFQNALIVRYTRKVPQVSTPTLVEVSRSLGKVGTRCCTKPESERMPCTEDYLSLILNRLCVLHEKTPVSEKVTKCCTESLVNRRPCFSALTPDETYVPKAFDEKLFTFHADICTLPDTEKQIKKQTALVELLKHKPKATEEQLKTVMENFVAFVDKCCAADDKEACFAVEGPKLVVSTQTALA
binder,measurement,value
B1,binding result,no binding
